# Results published in patent publication US20040248233A1 (Dana-Farber, published 2004).
# Where a chain is given by its changes, count along the chain named. Ends that are not written are not given here.
# B1: Pro564Ala Gal4-HA-HIF1α (530-652) (other)
# chain: EFKLELVEKLFAEDTEAKNPFSTQDTDLDLEMLAAYIPMDDDFQLRSFDQLSPLESSSASPESASPQSTVTVFQQTQIQEPTANATTTTATTDELKTVTKDRMEDIKILIASPSPTHIHKETT
# notes: range 530-652; also called Gal4-ODD Pro564Ala; not shown: Gal4 moiety and HA tag
# B2: Leu562Ala Gal4-HA-HIF1α (530-652) (other)
# chain: B1 chain with L33A, A35P
# notes: range 530-652; also called Gal4-ODD Leu562Ala; not shown: Gal4 moiety and HA tag
# How the values were obtained:
# [1] = target: T1, pVHL (HA-tagged: 35S-HA-pVHL in vitro translate, or HA-pVHL produced in ts20 and WT8 cells) (UniProt P40337 1-213); test: biotinylated peptide, pVHL binding
# T1 construct: Also used for sentences that say only 'pVHL'; In cell lysates pVHL is in complex with elongin B, elongin C and Cul2; also called 35S-labeled pVHL; HA-VHL; not shown: HA tag
# T1 sequence (P40337 whole entry): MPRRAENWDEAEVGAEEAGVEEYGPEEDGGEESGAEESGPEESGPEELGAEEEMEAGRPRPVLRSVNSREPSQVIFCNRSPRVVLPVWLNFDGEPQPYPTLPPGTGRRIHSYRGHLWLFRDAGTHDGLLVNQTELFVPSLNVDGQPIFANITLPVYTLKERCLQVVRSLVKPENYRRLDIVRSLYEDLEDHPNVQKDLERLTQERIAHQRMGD
# [2] = target: T2, GST-VHL, elongin B, elongin C complexes (GST-VBC), immobilized on glutathione sepharose (UniProt P40337 54-213; Q15370 1-118; Q15369 17-112); test: capture with immobilized GST-VBC
# T2 construct: also called VBC-GST; GST-pVHL, elongin B, elongin C complexes
# [3] = target: T1, pVHL (HA-tagged: 35S-HA-pVHL in vitro …); test: biotinylated peptide on avidin Sepharose, 35S-pVHL
Binder,binding result [1],binding result [2],also measured
"DLDLEALAPYIPADDDFQLR (peptide, UniProt Q16665 556-575, looked up, also: biotinylated (position not given here), also called double alanine substitution) [biotinylated HIF (556-575) peptide with Met561 and Met568 converted to alanine]",binds,–,–
B1,–,no binding,–
B2,–,no binding,–
"DLDLEMLAAYIPMDDDFQLR (peptide, UniProt Q16665 556-575, looked up, also: biotinylated (position not given here)) [biotinylated HIF1α (556-575) peptide Pro564Ala]",–,–,binding result [3]: no binding
"DLDLEMLAPYIPADDDFQLR (peptide, UniProt Q16665 556-575, looked up, also: biotinylated (position not given here)) [biotinylated HIF (556-575) peptide with the single substitution Met568 to alanine]",binds,–,–
"DLDLEALAPYIPMDDDFQLR (peptide, UniProt Q16665 556-575, looked up, also: biotinylated (position not given here)) [biotinylated HIF (556-575) peptide with the single substitution Met561 to alanine]",binds,–,–
